Measured values taken from patent publication US20210403546A1 (LUDWIG INSTITUTE FOR CANCER RESEARCH, published 2021).

biological target: T1, human recombinant TGF-b1 (human, UniProt P01137 279-390); assay: SPR (Biacore T200), 10 nM Fab over amine-coupled TGFb1 (492 RUs)
T1 construct: also called TGF-β1; hTGF-β1
Method: FIG. 27 provides Biacore analysis of the new mutant variant antibodies and compares the new mutants versus parent variant 13A1-2F and versus mu13A1. Selected variants have different monovalent (huIgG1 stabilized Fab format). Biacore binding kinetics, range from lower to higher than the parental mouse 13A1 (mu13A1, hybrid with mouse VK/VH and huCK/huCH1). The data presented is ka, kd and apparent KD. TGFb1 (chip): 492 Rus, Fabs: 10 nM, Flow rate: 30 ul/min, Contact time: 510s, Diss. Time: 600s. Quality: Chi(2)<=1% Rmax and U score <=5. Data is presented for mutant variant antibodies 13A1_AF, 13A1_AG, 13A1_AH, 13A1_BF, 13A1_BG, 13A1_BH, 13A1_CF, 13A1_CG, 13A1_CH, 13A1_DF, 13A1_DG, 13A1_DH, 13A1_EF, 13A1_EG and 13A1_EH.
SPR binding analysis of Fabs: Experiments were performed using the Biacore T200 equipped with the Series S sensor chip CMS (GE Healthcare, cat. #BR-1005-30). The instrument temperature was set at 25° C. for all steps in the analysis while the compartment temperature was set at 10° C. All the assays were performed using the running buffer HBS-EP+ 1×. Recombinant TGF-β1 (Biocat, cat. #TG1-H4212-50 ug-AC) was immobilized with the standard amine-coupling chemistry using a solution of the ligand at 1 ug/mL in acetate, pH 4.5. Recombinant TGF-β1 was injected for several minutes to achieve a target density of 492 RUs. For TGF-β1 kinetic analysis Fabs were diluted in running buffer to 10 nM. One buffer blank was always injected before the injection of the antibody sample. The antibodies were then injected for 8.5 minutes (510 s) at 30 uL/min with 600 seconds of dissociation time. Regeneration was performed with 60 seconds of injection at 30 uL/min of 10 mM glycine 1.5. The Biacore binding kinetics range from lower to higher than the parental mouse 13A1 (mu13A1, hybrid with mouse VK/VH and huCK/huCH1.

T1 sequence (P01137 279-390 limits assumed): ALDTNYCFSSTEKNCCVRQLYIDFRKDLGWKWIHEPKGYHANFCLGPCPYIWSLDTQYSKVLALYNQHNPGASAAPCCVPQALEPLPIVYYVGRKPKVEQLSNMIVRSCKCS

| binding result | Binder |
| --- | --- |
| binds | 13A1_DH Fab (LCR13A1_VK_GLv1_08 + LCR13A1_VH_GLv1_06) (Fab, V domains shown, Human stabilized IgG1 Fab, 6xHis on CH1) VH: QVQLVQSGSVLAKPGASVKVSCKASGYTFTNYWTHWVRQAPGQGLEWIGTIYPGNSDTNYNQKFKDRAKLTAVTSTSTVYMELSSLRSEDTALYYCTREDSRSLNFNGWDYFDHWGQGTLVTVSS VL: DIVMTQSPDSLAVSLGQRASISCRASESVDNYGISFLNWFQQKPGQPPKLLIYAASNQGSGVPSRFSGSGSGTDFTLNIHPLEAEDAATYYCQQSKEVPRTFGGGTKVEIK |
| binds | 13A1_AH Fab (LCR13A1_VK_GLv3_02 + LCR13A1_VH_GLv1_06) (Fab, V domains shown, Human stabilized IgG1 Fab, 6xHis on CH1) VH: QVQLVQSGSVLAKPGASVKVSCKASGYTFTNYWTHWVRQAPGQGLEWIGTIYPGNSDTNYNQKFKDRAKLTAVTSTSTVYMELSSLRSEDTALYYCTREDSRSLNFNGWDYFDHWGQGTLVTVSS VL: DIVMTQSPDSLAVSLGERATINCKSSESVDNYGISFLNWYQQKPGKAPKLLIYAASNQGSGVPDRFSGSGSGTDFTLTISSLQAEDAAVYFCQQSKEVPRTFGGGTKLEIK |
| binds | 13A1_DG Fab (LCR13A1_VK_GLv1_08 + LCR13A1_VH_GLv1_05) (Fab, V domains shown, Human stabilized IgG1 Fab, 6xHis on CH1) VH: QVQLVQSGSVLAKPGASVKVSCKASGYTFTNYWTHWVRQAPGQGLEWIGTIYPGNSDTNYNQKFKDRAKLTAVTSTSTVYMELSSLRSEDTALYYCTREDSRSLYYNGWDYFDHWGQGTLVTVSS VL: DIVMTQSPDSLAVSLGQRASISCRASESVDNYGISFLNWFQQKPGQPPKLLIYAASNQGSGVPSRFSGSGSGTDFTLNIHPLEAEDAATYYCQQSKEVPRTFGGGTKVEIK |
| binds | 13A1_CF Fab (LCR13A1_VK_GLv1_07 + LCR13A1_VH_GLv1_04) (Fab, V domains shown, Human stabilized IgG1 Fab, 6xHis on CH1) VH: QVQLVQSGSVLAKPGASVKVSCKASGYTFTNYWMHWVRQAPGQGLEWIGTIYPGNSDTNYNQKFKDRAKLTAVTSTSTVYMELSSLRSEDTAVYYCTREDSRSLNFNGWDYFDYWGQGTLVTVSS VL: DIVMTQSPDSLAVSLGERATISCRASESVDNYGISLLNWFQQKPGQPPKLLIYAASNQGSGVPSRFSGSGSGTDFTLNIHPLEAEDAATYYCQQSKEVPRTFGGGTKVEIK |
| binds | 13A1_AF Fab (LCR13A1_VK_GLv3_02 + LCR13A1_VH_GLv1_04) (Fab, V domains shown, Human stabilized IgG1 Fab: VH-CH1(IgG1)-6xHis and VK-CK, CK/CH1 with the stabilizing mutations of Chen et al 2016) VH: QVQLVQSGSVLAKPGASVKVSCKASGYTFTNYWMHWVRQAPGQGLEWIGTIYPGNSDTNYNQKFKDRAKLTAVTSTSTVYMELSSLRSEDTAVYYCTREDSRSLNFNGWDYFDYWGQGTLVTVSS VL: DIVMTQSPDSLAVSLGERATINCKSSESVDNYGISFLNWYQQKPGKAPKLLIYAASNQGSGVPDRFSGSGSGTDFTLTISSLQAEDAAVYFCQQSKEVPRTFGGGTKLEIK |
| binds | 13A1_EH Fab (LCR13A1_VK_GLv1_09 + LCR13A1_VH_GLv1_06) (Fab, V domains shown, Human stabilized IgG1 Fab, 6xHis on CH1) VH: QVQLVQSGSVLAKPGASVKVSCKASGYTFTNYWTHWVRQAPGQGLEWIGTIYPGNSDTNYNQKFKDRAKLTAVTSTSTVYMELSSLRSEDTALYYCTREDSRSLNFNGWDYFDHWGQGTLVTVSS VL: DIVMTQSPDSLAVSLGQRASISCRASESVDNYGISLLNWYQQKPGQPPKLLIYAASNQGSGVPSRFSGSGSGTDFTLNIHPLEAEDAATYYCQQSKEVPRTFGGGTKVEIK |
| binds | 13A1_BG Fab (LCR13A1_VK_GLv1_06 + LCR13A1_VH_GLv1_05) (Fab, V domains shown, Human stabilized IgG1 Fab, 6xHis on CH1) VH: QVQLVQSGSVLAKPGASVKVSCKASGYTFTNYWTHWVRQAPGQGLEWIGTIYPGNSDTNYNQKFKDRAKLTAVTSTSTVYMELSSLRSEDTALYYCTREDSRSLYYNGWDYFDHWGQGTLVTVSS VL: DIVMTQSPDSLAVSLGERATISCRASESVDNYGISFLNWYQQKPGQPPKLLIYAASNQGSGVPSRFSGSGSGTDFTLNIHPLEAEDAATYYCQQSKEVPRTFGGGTKVEIK |
| binds | 13A1_EG Fab (LCR13A1_VK_GLv1_09 + LCR13A1_VH_GLv1_05) (Fab, V domains shown, Human stabilized IgG1 Fab, 6xHis on CH1) VH: QVQLVQSGSVLAKPGASVKVSCKASGYTFTNYWTHWVRQAPGQGLEWIGTIYPGNSDTNYNQKFKDRAKLTAVTSTSTVYMELSSLRSEDTALYYCTREDSRSLYYNGWDYFDHWGQGTLVTVSS VL: DIVMTQSPDSLAVSLGQRASISCRASESVDNYGISLLNWYQQKPGQPPKLLIYAASNQGSGVPSRFSGSGSGTDFTLNIHPLEAEDAATYYCQQSKEVPRTFGGGTKVEIK |
| binds | 13A1_CG Fab (LCR13A1_VK_GLv1_07 + LCR13A1_VH_GLv1_05) (Fab, V domains shown, Human stabilized IgG1 Fab, 6xHis on CH1) VH: QVQLVQSGSVLAKPGASVKVSCKASGYTFTNYWTHWVRQAPGQGLEWIGTIYPGNSDTNYNQKFKDRAKLTAVTSTSTVYMELSSLRSEDTALYYCTREDSRSLYYNGWDYFDHWGQGTLVTVSS VL: DIVMTQSPDSLAVSLGERATISCRASESVDNYGISLLNWFQQKPGQPPKLLIYAASNQGSGVPSRFSGSGSGTDFTLNIHPLEAEDAATYYCQQSKEVPRTFGGGTKVEIK |
| binds | 13A1_BH Fab (LCR13A1_VK_GLv1_06 + LCR13A1_VH_GLv1_06) (Fab, V domains shown, Human stabilized IgG1 Fab, 6xHis on CH1) VH: QVQLVQSGSVLAKPGASVKVSCKASGYTFTNYWTHWVRQAPGQGLEWIGTIYPGNSDTNYNQKFKDRAKLTAVTSTSTVYMELSSLRSEDTALYYCTREDSRSLNFNGWDYFDHWGQGTLVTVSS VL: DIVMTQSPDSLAVSLGERATISCRASESVDNYGISFLNWYQQKPGQPPKLLIYAASNQGSGVPSRFSGSGSGTDFTLNIHPLEAEDAATYYCQQSKEVPRTFGGGTKVEIK |
| binds | 13A1_DF Fab (LCR13A1_VK_GLv1_08 + LCR13A1_VH_GLv1_04) (Fab, V domains shown, Human stabilized IgG1 Fab, 6xHis on CH1) VH: QVQLVQSGSVLAKPGASVKVSCKASGYTFTNYWMHWVRQAPGQGLEWIGTIYPGNSDTNYNQKFKDRAKLTAVTSTSTVYMELSSLRSEDTAVYYCTREDSRSLNFNGWDYFDYWGQGTLVTVSS VL: DIVMTQSPDSLAVSLGQRASISCRASESVDNYGISFLNWFQQKPGQPPKLLIYAASNQGSGVPSRFSGSGSGTDFTLNIHPLEAEDAATYYCQQSKEVPRTFGGGTKVEIK |
| binds | 13A1_BF Fab (LCR13A1_VK_GLv1_06 + LCR13A1_VH_GLv1_04) (Fab, V domains shown, Human stabilized IgG1 Fab, 6xHis on CH1) VH: QVQLVQSGSVLAKPGASVKVSCKASGYTFTNYWMHWVRQAPGQGLEWIGTIYPGNSDTNYNQKFKDRAKLTAVTSTSTVYMELSSLRSEDTAVYYCTREDSRSLNFNGWDYFDYWGQGTLVTVSS VL: DIVMTQSPDSLAVSLGERATISCRASESVDNYGISFLNWYQQKPGQPPKLLIYAASNQGSGVPSRFSGSGSGTDFTLNIHPLEAEDAATYYCQQSKEVPRTFGGGTKVEIK |
| binds | 13A1_CH Fab (LCR13A1_VK_GLv1_07 + LCR13A1_VH_GLv1_06) (Fab, V domains shown, Human stabilized IgG1 Fab, 6xHis on CH1) VH: QVQLVQSGSVLAKPGASVKVSCKASGYTFTNYWTHWVRQAPGQGLEWIGTIYPGNSDTNYNQKFKDRAKLTAVTSTSTVYMELSSLRSEDTALYYCTREDSRSLNFNGWDYFDHWGQGTLVTVSS VL: DIVMTQSPDSLAVSLGERATISCRASESVDNYGISLLNWFQQKPGQPPKLLIYAASNQGSGVPSRFSGSGSGTDFTLNIHPLEAEDAATYYCQQSKEVPRTFGGGTKVEIK |
| binds | 13A1_AG Fab (LCR13A1_VK_GLv3_02 + LCR13A1_VH_GLv1_05) (Fab, V domains shown, Human stabilized IgG1 Fab, 6xHis on CH1) VH: QVQLVQSGSVLAKPGASVKVSCKASGYTFTNYWTHWVRQAPGQGLEWIGTIYPGNSDTNYNQKFKDRAKLTAVTSTSTVYMELSSLRSEDTALYYCTREDSRSLYYNGWDYFDHWGQGTLVTVSS VL: DIVMTQSPDSLAVSLGERATINCKSSESVDNYGISFLNWYQQKPGKAPKLLIYAASNQGSGVPDRFSGSGSGTDFTLTISSLQAEDAAVYFCQQSKEVPRTFGGGTKLEIK |
| binds | 13A1_EF Fab (LCR13A1_VK_GLv1_09 + LCR13A1_VH_GLv1_04) (Fab, V domains shown, Human stabilized IgG1 Fab, 6xHis on CH1) VH: QVQLVQSGSVLAKPGASVKVSCKASGYTFTNYWMHWVRQAPGQGLEWIGTIYPGNSDTNYNQKFKDRAKLTAVTSTSTVYMELSSLRSEDTAVYYCTREDSRSLNFNGWDYFDYWGQGTLVTVSS VL: DIVMTQSPDSLAVSLGQRASISCRASESVDNYGISLLNWYQQKPGQPPKLLIYAASNQGSGVPSRFSGSGSGTDFTLNIHPLEAEDAATYYCQQSKEVPRTFGGGTKVEIK |
